The values that follow come from the DeepSol protein solubility set.

A short description of this data set: soluble on expression in E. coli; label from the status in PepcDB or PDB records.
As to “GPGSMFQRSLWRFFAHLVREVDTAGFAGDFRRLHHVGAASTQTQAREARHAACNVLFCGHHGTGKLNLLKAIGLQCEKKGQRVAFVSADNQRAARLDGYLINFFIGMRVSRDELPSQEQLEGTLERHVRLVESTFASSFPSLRNIDVLILDALELVQPTVLLSMDAVARRLRGQPRTPFGGLRVYAAADFWRLPVHPTSDTGGYLFQLEQWEVLFPLQTLLRKSHVQKEEELRRLTELAFYGALTLPQMKELEKLSMKEKPESRLFSWSSSTMEAEKSTATATEGEDEEGEIEEEDAMSIAQWTSFPGESAAADLPDGPEGALEATKDDEGAVNDPAAGQTSLSSSSSALALLNDDMASNSFVATRMMLRFPRQPAVKEMPLRYRQLKRTEMGNFLVNMLVHSSSATSVGLVDSLSVDVGSRVHLLLDGQEHYGVPGGAVGEVMQVGPHFLSIHFPREHRTVDIPRMRVVCYHPFYPEIRYELQQFPVFPRKRICPMNILTYPHAFFVNLNGRRMADTNDLGNLLAHQRSFADFTTRNTSDFANLDGMVHEPTRIYYHKISGKPISTAREQWCRNCKQFVPTDSFFEHWATCVHSVRWCIDCNQTVSLELLGPHREKHQVVLCLDCGRPVEWRHWEGHRLSCGPMMREVSTDNQFIPLRTRQLALEMGLDKRDLHTVASITKSSLPKPREGVL”, the “soluble on expression in E. coli” value is “not soluble”.
As to “MSKDSNKIIEQSREIGISIIMPLYNVEEVILETLESIHEQTFDSYEVLLIDDGSTDKTIEIVTEYIKDKPRFKLYTQPNGGPASARNHGLRLAIGMYICFVDSDDILPNYSLQLMYDGAISTGAKLITGATKRFNSEGEWFIPMHIQYNIAKPGMKTLLKNPELFYSIGPCAKLYHHSLIDGVFFPENIRYGEDQPFVLHALLQAKDIYTVEKVVYYYRLRDGESQSLTQSVDKDPIRILKSVFQIFDYGEEELKKNNTDYEVALKYYQRVSSVELWGALRAAIESKKSENQKIAFTMTLDWLKTKSDDFLNIIPSFRYFLLFSSIERVRYITKDNKENYRNLIGYLWSRQGEEAKIAFRKTYPIPMKAALQIIENNNWRDARKISFKFIVRRKFKAPILIRKISRGIIFRIATLMPRKKNQVILATERSTTLEGNLLAIYDYMFYNNMPQKVYVFLRKNRNWFEMFQLYYTLGRTKTIVLDDYYNKIYGLKFNKNTHVVQSWHATGAFKKFGFSALEGTDANTEEFETRAHSPYTDVLVSSEGIIPEYMEAFRKQANQIKPIGVPRTDVFFDDEYVNYTKEKYMKMYPQLRDKKILLYAPTFRGGPNERFNYSVVLDIAALKKELGDTHILILKFHPVIKNVSFNVEEDDPFILNLTLNNDINDLMLFSDALITDYSSVIFEFSLMNKPIYFFAYDIDDYLDERGFYFDYKATIPGEVFRDTPSLIEAVKSGLYNYDELEIFKKKFVGSLDGNSTKRFVETYIGKANEKVKDILEHHHHHH”, the “soluble on expression in E. coli” value is “soluble”.
For the sequence “MTKIACVIVTYNRKQLLEEALNSVLIQTESPEYVFVIDNASTDGTEKYINDKFNFDNRQWHYVRCSQNLGGSAGFAQGMRLALQTDCSWISISDDDAIFEPGYFAALRKGIKQYPEQSVFSGSVLLPDGKHDMMHREVITNSATLTVRCVTDETYKHDFSYDIFSFVGILLSRQVIEAIGLPEQDYFIRFDDFEYAVRALKFGRFMNLSAAKVLHKTTYTRSALEHHHHHH”, the “soluble on expression in E. coli” value is reported as “not soluble”.
To “GPGSMTAGAPTTVAGEYPRPSASLHPSVDCSSLNRVPTATAAAPPPPSPRLSGYVMPSVVNPYSQGASQQPAMAHVSEPVNPASYLQQANAMGRWSYQQPPLQQPQYPTLDPVATRVAAIDAEEAAMAAEEMTMRAKLAELQVARKQQEEEQLYLSHGWAQMLEKEERYYTEPVIDLRPDIMAREQQCAMLHNHLQQVEAQAQHAQSQLQGTEYILRDAESFEQERRRVQDAFQEVERRRRECVARAERYFDVEAKRVVEGNKVIRKLDSQLREMTQRGPLAQLQDGNRHPFHRS” belongs “not soluble”.
To “ALLAVSMVACTSDEIALIEAMSKTSEISSYEGNSKIQLSFKGQGFSEKTQKVFDFLASYVDGFTFEANQKYSSNDEKTKATLAMDGNVDMQGLSVKYKYWTDMDFTTENPSLIQIVELPPAITQPMFTFANTGTKKYITIDYGSVLSAENNGGISLNPENLAKNSVELQEMLLDFVKTTAKDFDPGMVAVTKKGSAVTDKGEKVTEYELKLDDAAAKKLLHAFINDVILQEDTIEFGKKYMEAAINMYDFPEEEKQEALDEINKGLDEFASQLPAYRDSVTQVFESIKDVKFFGDKGLVAKYYINNDGFLVGGKSSIDIKIKMADFAALLGDNFDEKDKNGVLYLTIDAESSVYNINKEVSIELPEITEENSFDVLKGFMPILSGIGSAPGIGEEDYTYDIPALSDGINVVMNGKVVYFPDVKPENVNGRVLVPIRTISEEMGAEVTYNDATKQVLIAKDDTEILLTIGSQEAYVNGEKIMLDVPAMIIEGRTMVPLRFISESMNATVEWDGEAQIVYIFY” belongs “not soluble”; to “MSMTVTTYLPIEAIKQQFCQSLDEQNTLILSAPPGAGKSTCLPLWLLTLPSLANKKIYLLQPRRLAVKNIATFLAAQLKEKVGETVGYRLRNDSKTSTSTRLEVITEGILTQIIQKDAELLGTALVVFDEFHERSLQGDLAFALTREVQTELRDDLKILLMSA”, “not soluble”.
For “MGSDKIHHHHHHMIDGDSSPLLRKQSPYPHWQYLHPESGDRLRIVPERGGLVTDWCCNGHELLYLDQERFADPEKSIRGGIPVLFPICGNLPGDLLPLPSGEFILKQHGFARDQPWELQLLEDHSGVKLSFVDSEETRAAYPFSFLLEMVVRPIRNALEIDVNVHNRSQSAMPFSFGLHPYFKVTDLNKVRLEGLPNSCLNHLQMAEAETAIQLAALTEGVDFLTRPAGPVTLVDEASGRSLQLQHENPMDLTVVWTDPPRQMLCLEPWTGPREALISGDRKLEIEAGGQQRLRCSFSINLEKTVRAASC” the value was “not soluble”; for “GITPRFSITQDEEFIFLKIFISNIRFSAVGLEIIIQENMIIFHLSPYYLRLRFPHELIDDERSTAQYDSKDECINVKVAKLNKNEYFEDLDLPTKLLARQGDLAGADALTENTDAKKTQKPLIQEVETDGVSNN”, “soluble”; for “MSYQPTSLTVASYNLRNANGSDSARGDGWGQRYPVIAQMVQYHDFDIFGTQECFLHQLKDMKEALPGYDYIGVGRDDGKDKGEHSAIFYRTDKFDIVEKGDFWLSETPDVPSKGWDAVLPRICSWGHFKCKDTGFEFLFFNLHMDHIGKKARVESAFLVQEKMKELGRGKNLPAILTGDFNVDQTHQSYDAFVSKGVLCDSYEKCDYRYALNGTFNNFDPNSFTESRIDHIFVSPSFHVKRYGVLTDTYRSVRENSKKEDVRDCPEEITIKAYEARTPSDHFPVKVELVFDLEHHHHHH”, “soluble”.
Turning to “LVSSPSTLNPGTNVAKLAEQAPVHWVSVAQIENSLTGRPPMAVGFDIDDTVLFSSPGFWRGKKTYSPDSDDYLKNPAFWEKMNNGWDEFSIPKEAARQLIDMHVRRGDSIYFVTGRSQTKTETVSKTLADNFHIPAANMNPVIFAGDKPEQNTRVQWLQEKNMRIFYGDSDNDITAARDCGIRGIRILRAANSTYKPLPQAGAFGEEVIVNSEY”, the “soluble on expression in E. coli” value is recorded as “soluble”.
To “MGPGTTVRWRRRVSGWRRAGCAALIAGAVALPLSGAARPEIPAPPPAALAAPTAATLDKAYAANRANAAEASRMAADHGDRHRAAADRAMADRSRRLLAFDGRGTGLATEVFGDLARADRVAVLVPGSDTGLDTYGRFRATALALHRQLVAEAPAGTRTAVVAWLGYETPGTVSTTVATTDRADRAAPELRALVGDLRRITGPGTRLALLCHSYGSVVCARAADGLEVADIALVGSPGTGADTAAGLHSEARVWAGRGAEDWVEHVPHVSADLFGTTVGFGTDPVSPAFGARVFDAGDGGHSDYFDPGSRSLTNLARIALGETTEVTHALEHHHHHH” belongs “not soluble”; to “MGSDKIHHHHHHMLKKVSRLDYFTLQVFIGLVELKSGSAVAERLRTTQSKVSRCLTCLREVLEDELFIRQQYGFEPNQVAVTIYPMVKTILEQYDKIVAATIDKGAEPYQLSVATYEQWSLMAMNCVHNTCHCIEGGVSINIQPWTDKIHQRLCQGKVDCSISTEPINHPMVNNFKLGDITHFFIVARRGHPILSSDAPLTQMFNYHIALVNTHLQEQEPHPIEVYAKARHIEIRVALKSPSLRMVVDHVSHSEDIALLSSAMSMAYFENRDDVDYLDISKIWLQTTELETQSYYLHCHKGIKPELTHCLRRVLTEKLHEMQAHCDQVAQENTRDLPTL”, “not soluble”.
To “SHMSKAKFDKAVEIVQSLPKDGPIKPTQDEQLYFYKYFKQATVGDVNISRPGLMDFTGKAKWDAWKSVEGTSKEVAYQKYVEKLLEILKKADTEESKKYIAEIEAA” belongs “soluble”.
